Biological target: ephrin B3 expressed on CHO cells
Test: inferred by the filing from ELISA, Octet and flow cytometry taken together

- concentration that would saturate: > 10 µg/mL
Substance: wild-type (WT) human EphA4-Fc (Fc fusion)

Reference: patent US20180339020A1
